The source of these data is patent US20030191058A1 (WALTER AND ELIZA INSTITUTE OF MEDICAL RESEARCH, published 2003).

Test [1] concerns the target recombinant murine SOCS-3, hexahistidine tagged (expressed from pET15b in E. coli, refolded) (murine) (UniProt O35718). Kind of test: SPR competition assay, soluble peptide against immobilised biotin-gp130(750-764) phosphopeptide.
For test [2] the target is unchanged. The test is described as follows: SPR competition assay, reference gp130(750-764) phosphopeptide.
For test [3] the target is unchanged. The test is described as follows: SPR competition assay, soluble peptide against immobilised biotin-gp130(750-764) phosphopeptide. This is another data set of the same source.
Test [4] concerns the target EPOR/gp130 chimeric receptor (erythropoietin receptor extracellular domain and gp130 cytoplasmic domain). The test is described as follows: cell-based or functional assay.
The target in test [5] is EPOR/gp130Y757F chimeric receptor (EPO receptor extracellular domain and gp130 cytoplasmic domain with tyrosine 757 mutated to phenylalanine). Kind of test: cell-based or functional assay.
In test [6] the target is recombinant murine SOCS-3, hexahistidine tagged (expressed from pET15b in E. coli, refolded) (murine) (UniProt O35718). Kind of test: SPR competition assay, soluble peptide against immobilised biotin-gp130(750-764) phosphopeptide, ~100 nM SOCS-3.
The target of test [7] is T1, recombinant murine SOCS-3, hexahistidine tagged (expressed from pET15b in E. coli, refolded) (murine, UniProt O35718 1-225).
T1 construct: also called recombinant SOCS-3; suppressor of cytokine signalling 3; not shown: hexahistidine tag from vector pET15b (NdeI/BamHI cloning)
T1 sequence (looked up): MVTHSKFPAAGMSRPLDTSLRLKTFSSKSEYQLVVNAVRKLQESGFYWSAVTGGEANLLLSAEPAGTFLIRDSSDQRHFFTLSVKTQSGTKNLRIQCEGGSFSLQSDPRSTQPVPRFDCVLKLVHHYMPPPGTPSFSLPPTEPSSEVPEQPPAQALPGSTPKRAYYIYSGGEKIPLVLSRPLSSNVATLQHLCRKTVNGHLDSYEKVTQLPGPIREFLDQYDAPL
Kind of test: pull-down: biotinylated phosphopeptide on streptavidin-agarose, eluate on SDS-PAGE. On the procedure: After washing and elution of bound protein, samples were analyzed by SDS-PAGE.
Biotinylated phosphopeptides were also prepared corresponding to the known tyrosine phosphorylation sites in murine STAT-1 (Y701) and STAT-3 (Y705). […] Following removal of the protein solution, resin was washed twice with 1 mL PBS/0.1% v/v Tween-20, and bound protein eluted with 25 μL of SDS sample buffer containing 10 mM DTT, Samples were analyzed by SDS-PAGE on 12% w/v polyacrylamide gels.

Square brackets hold non-standard residues; d marks the D form. * marks the point of attachment. Biotin = O=C1N[C@H]2[C@H](CS[C@H]2CCCCC(=O)*)N1; pY = N[C@@H](Cc1ccc(OP(=O)(O)O)cc1)C(=O)O

Consider “JAK1 activation loop phosphopeptide IETDKE(pY)YTVKDDRD”, for which, in test [1], the IC50 amounted to 230000 nM.

As for “JAK2 activation loop phosphopeptide LPQDKE(pY)YKVKEPGE”, the fold weaker affinity than gp130(750-764) in test [2] worked out at 10000 fold.

“JAK3 activation loop phosphopeptide LPLGKD(PY)YVVREPGQ”: the fold weaker affinity than gp130(750-764) in test [2] is 1000 fold. In addition, the results for the IC50 in test [1] and in test [3] were 140000 nM and 110000 nM, respectively.

Consider “SOCS-3 expressed in transiently transfected 293T cells (Flag-tagged, detected with anti-Flag antibody)”, for which the 50% inhibition of EPO-induced APRE-luc luciferase activity in 293T cells (amount of SOCS-3 DNA transfected) came out at 4 ng in test [4] and 54 ng in test [5].

In the case of “gp130(750-764) phosphopeptide analogue STASTVE(pY)ATVVHSG”, the IC50 analogue/IC50 wild-type in test [2] came out at 0.65. Besides, the IC50 in test [6] was determined as 72 nM.

For the molecule “gp130(750-764) phosphopeptide analogue STASTVE(pY)STAVHSG”, the IC50 analogue/IC50 wild-type in test [2] stood at 31. Further, the IC50 in test [6] stood at 3400 nM.

On to “gp130(750-764) phosphopeptide analogue STASTVE(pY)STVAHSG”, for which the IC50 analogue/IC50 wild-type in test [2] came to 10. Further, in test [6], the IC50 was determined as 1100 nM.

Regarding “gp130(750-764) phosphopeptide analogue STASTVE(pY)STVVASG”, the IC50 analogue/IC50 wild-type in test [2] worked out at 7. The IC50 in test [6] was found to be 770 nM.

Turning to “truncated gp130 phosphopeptide Ac(pY)STVVHSG”, the IC50 analogue/IC50 wild-type in test [2] amounted to 87. Further, in test [6], the IC50 is 9600 nM.

On to “truncated gp130 phosphopeptide AcE(pY)STVVHSG”, for which the IC50 analogue/IC50 wild-type in test [2] is 8.8. The IC50 in test [6] amounted to 970 nM.

Consider “truncated gp130 phosphopeptide AcTVE(pY)STVVHSG”, for which the IC50 analogue/IC50 wild-type in test [2] is 1.1. Besides, in test [6], the IC50 came to 120 nM.

As to “truncated gp130 phosphopeptide STASTVE(pY)STVV”, in test [2], the IC50 analogue/IC50 wild-type stood at 10. Moreover, in test [6], the IC50 came to 1100 nM.

Regarding “truncated gp130 phosphopeptide STASTVE(pY)STVVH”, the IC50 analogue/IC50 wild-type in test [2] was 0.7. The IC50 in test [6] amounted to 77 nM.

In the case of “truncated gp130 phosphopeptide STASTVE(pY)STVVHS”, in test [2], the IC50 analogue/IC50 wild-type came to 0.55. The IC50 in test [6] turned out to be 61 nM.

Consider “truncated gp130 phosphopeptide analogue AcAE(pY)STVVHSG”, for which the IC50 analogue/IC50 wild-type in test [2] is 5.3. The 50% inhibitory concentration (IC50) in test [6] came to 580 nM.

Regarding “truncated gp130 phosphopeptide analogue AcVA(pY)STVVHSG”, in test [2], the IC50 analogue/IC50 wild-type was found to be 5. For the same molecule, in test [6], the IC50 stood at 550 nM.

B1: biotinylated gp130(674-688) phosphopeptide (peptide)
peptide: Biotin-FNSKDQM[pY]SDGNFTD-NH2
SMILES: CSCC[C@H](NC(=O)[C@H](CCC(N)=O)NC(=O)[C@H](CC(=O)O)NC(=O)[C@H](CCCCN)NC(=O)[C@H](CO)NC(=O)[C@H](CC(N)=O)NC(=O)[C@H](Cc1ccccc1)NC(=O)CCCC[C@@H]1SC[C@@H]2NC(=O)N[C@@H]21)C(=O)N[C@@H](Cc1ccc(OP(=O)(O)O)cc1)C(=O)N[C@@H](CO)C(=O)N[C@@H](CC(=O)O)C(=O)NCC(=O)N[C@@H](CC(N)=O)C(=O)N[C@@H](Cc1ccccc1)C(=O)N[C@H](C(=O)N[C@@H](CC(=O)O)C(N)=O)[C@@H](C)O
Take B1: in test [7], the binding result was “no binding (tested: 50 µg/mL)”.

B2: pY765 STVVHSG(pY)RHQVPSV gp130 (758-772) (peptide)
peptide: Biotin-STVVHSG[pY]RHQVPSV-NH2
SMILES: CC(C)[C@H](NC(=O)[C@H](CO)NC(=O)[C@@H]1CCCN1C(=O)[C@@H](NC(=O)[C@H](CCC(N)=O)NC(=O)[C@H](Cc1c[nH]cn1)NC(=O)[C@H](CCCNC(=N)N)NC(=O)[C@H](Cc1ccc(OP(=O)(O)O)cc1)NC(=O)CNC(=O)[C@H](CO)NC(=O)[C@H](Cc1c[nH]cn1)NC(=O)[C@@H](NC(=O)[C@@H](NC(=O)[C@@H](NC(=O)[C@H](CO)NC(=O)CCCC[C@@H]1SC[C@@H]2NC(=O)N[C@@H]21)[C@@H](C)O)C(C)C)C(C)C)C(C)C)C(N)=O
notes: also called biotinylated gp130(758-772) phosphopeptide; member of the group m25
Turning to B2, the binding result in test [7] is reported as “no binding (tested: 50 µg/mL)”.

B3: pY914 QTVRQGG(pY)MPQ gp130 (907-917) (peptide)
peptide: Biotin-QTVRQGG[pY]MPQ-NH2
SMILES: CSCC[C@H](NC(=O)[C@H](Cc1ccc(OP(=O)(O)O)cc1)NC(=O)CNC(=O)CNC(=O)[C@H](CCC(N)=O)NC(=O)[C@H](CCCNC(=N)N)NC(=O)[C@@H](NC(=O)[C@@H](NC(=O)[C@H](CCC(N)=O)NC(=O)CCCC[C@@H]1SC[C@@H]2NC(=O)N[C@@H]21)[C@@H](C)O)C(C)C)C(=O)N1CCC[C@H]1C(=O)N[C@@H](CCC(N)=O)C(N)=O
notes: also called biotinylated gp130(907-917) phosphopeptide; member of the group m25
For B3, the binding result in test [7] is recorded as “no binding (tested: 50 µg/mL)”.

One may read the IC50 as the concentration that gives 50% inhibition.
